In publication PMC4019695:

Tests used:
[1] = molecular target: Drosophila 80S ribosome (Drosophila (endogenous in fly embryos)) (UniProt P46222); assay: FRET or BRET
[2] = molecular target: Drosophila 80S ribosome (Drosophila (endogenous in fly embryos)) (UniProt P46222); assay: SEC

| Kd [1] | fold reduction of binding against NT-dFMRP [2] | Substance |
| --- | --- | --- |
| 130 nM | 2 fold | NT-dFMRP KH1 (I244N) mutant (from UniProt Q9NFU0 220-681) (domain or fragment) |
| 61 nM |  | NT-dFMRP KH2 (I307N) mutant (from UniProt Q9NFU0 220-681) (domain or fragment) |
| > 2000 nM |  | NT-dFMRP ΔRGG mutant, residues 220-413 (from UniProt Q9NFU0 220-413) (domain or fragment) |
